Laboratory results: US20260227398A1, “CD62L (L-SELECTIN) APTAMER AND ITS APPLICATION FOR T CELL ISOLATION” (University of Washington, published 2026)

How the values were obtained:
[1] = molecular target: human CD62L/L-selectin expressed on J.RT3-T3.5 cells (human) (UniProt P14151); test: flow cytometry, 50 nM antibody on J.RT3-T3.5 cells 48 hours after electroporation with SELL siRNA
[2] = molecular target: T1, E-selectin (CD62E, SELE) (Homo sapiens, UniProt P16581 P16581:22-556); test: BLI; no noticeable binding up to 1000 nM CD62E; settings: tags: recombinant human CD62E, ACROBiosystems; label: 5' 6-FAM or biotin (hexaethylene glycol spacer)
T1 sequence: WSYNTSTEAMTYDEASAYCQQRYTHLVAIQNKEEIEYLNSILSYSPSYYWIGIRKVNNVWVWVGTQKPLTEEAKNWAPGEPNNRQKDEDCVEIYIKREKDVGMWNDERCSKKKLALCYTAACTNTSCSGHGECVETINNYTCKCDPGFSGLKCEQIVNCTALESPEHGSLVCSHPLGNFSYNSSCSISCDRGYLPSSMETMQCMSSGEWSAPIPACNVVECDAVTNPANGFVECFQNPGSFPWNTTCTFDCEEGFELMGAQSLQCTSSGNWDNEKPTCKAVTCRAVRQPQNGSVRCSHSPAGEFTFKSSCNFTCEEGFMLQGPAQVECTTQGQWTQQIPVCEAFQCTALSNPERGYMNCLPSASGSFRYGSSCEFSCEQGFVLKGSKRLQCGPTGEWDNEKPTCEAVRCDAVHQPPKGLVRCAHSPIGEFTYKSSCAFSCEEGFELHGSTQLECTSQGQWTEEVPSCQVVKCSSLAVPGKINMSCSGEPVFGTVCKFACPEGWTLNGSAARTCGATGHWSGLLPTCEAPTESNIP
Procedure: (§1) Prior to running, Octet streptavidin (SA) biosensors (Sartorius of Göttingen, Germany) were pre-soaked in 200 μL diluent (WB supplemented with 1% BSA, 0.1 mg/mL yeast tRNA, 0.1 mg/mL salmon sperm DNA and 0.01% Tween-20). For BLI, the SA biosensors were first rinsed in 200 μL diluent for 100 sec to establish the first baseline. The rinsed sensors were transferred to wells containing 50 nM biotinylated aptamers in 200 μL diluent for aptamer immobilization onto the SA biosensors until a threshold of 0.5 nm is reached. Next, aptamer-immobilized SA biosensors were rinsed in 200 μL diluent for 100 sec to remove excess aptamers and for an additional 100 sec in 200 μL diluent to establish the second baseline. The sensors were then transferred to wells containing different concentrations of L-selectin in 200 μL diluent to allow aptamer association with CD62L (R&D Systems of Minneapolis, Minnesota), CD62P (ACROBiosystems of Newark, Delaware), or CD62E (ACROBiosystems). Finally, the sensors were transferred to wells containing 200 μL diluent to allow dissociation. […]
(§2) The binding affinity and kinetics of CD62LApt.52 to JRT.3-T3.5 cells and to recombinant human CD62L protein was characterized by flow cytometry and BLI, respectively. […] However, no noticeable binding of CD62LApt.52 to either CD62E or CD62P at up to 1000 nM was detected by BLI (FIGS. 15A, 15B).

[3] = molecular target: T2, L-selectin (CD62L, SELL) (Homo sapiens, UniProt P14151 P14151:39-332); test: BLI; +/-0.045; R2 0.9959; aptamer immobilised; settings: tags: recombinant human CD62L, R&D Systems; label: 5' 6-FAM or biotin (hexaethylene glycol spacer)
T2 sequence: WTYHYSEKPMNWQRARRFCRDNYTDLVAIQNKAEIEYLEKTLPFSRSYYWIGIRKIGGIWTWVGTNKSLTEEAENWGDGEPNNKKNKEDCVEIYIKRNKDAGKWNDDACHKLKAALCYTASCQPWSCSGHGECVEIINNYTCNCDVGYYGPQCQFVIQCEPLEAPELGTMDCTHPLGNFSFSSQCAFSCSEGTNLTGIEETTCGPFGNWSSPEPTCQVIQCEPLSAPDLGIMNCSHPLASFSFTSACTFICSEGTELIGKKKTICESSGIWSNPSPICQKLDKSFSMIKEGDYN
Procedure: as §1, §2

[4] = molecular target: P-selectin (CD62P, SELP) (Homo sapiens, UniProt P16109 P16109:42-771); test: BLI; no noticeable binding up to 1000 nM CD62P; settings: tags: recombinant human CD62P, ACROBiosystems; label: 5' 6-FAM or biotin (hexaethylene glycol spacer)
Procedure: as §1, §2

[5] = molecular target: T3, L-selectin (CD62L) on J.RT3-T3.5 cells (Homo sapiens, UniProt P14151 P14151:39-372); test: flow; DPBS Ca/Mg + 5 mM MgCl2, 25 mM glucose, BSA, 4 C; settings: tags: endogenous, J.RT3-T3.5 human T-ALL line; label: 5' 6-FAM or biotin (hexaethylene glycol spacer)
T3 sequence: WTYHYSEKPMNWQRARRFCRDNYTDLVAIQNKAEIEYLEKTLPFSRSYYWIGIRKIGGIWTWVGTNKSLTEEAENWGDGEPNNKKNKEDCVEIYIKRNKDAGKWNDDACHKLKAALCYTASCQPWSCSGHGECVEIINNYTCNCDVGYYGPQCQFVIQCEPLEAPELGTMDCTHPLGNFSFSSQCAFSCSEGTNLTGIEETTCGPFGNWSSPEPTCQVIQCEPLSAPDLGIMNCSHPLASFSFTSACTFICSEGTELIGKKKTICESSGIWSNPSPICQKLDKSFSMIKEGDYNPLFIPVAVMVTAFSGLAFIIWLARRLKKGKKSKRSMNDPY

[6] = molecular target: T2, L-selectin (CD62L, SELL); test: BLI; +/-0.203; 1:1 fit poor (R2 0.9029); aptamer immobilised; DPBS Ca/Mg + 5 mM MgCl2, 1% BSA, tRNA, salmon sperm DNA, Tween-20; settings: tags: recombinant human CD62L, R&D Systems; label: 5' 6-FAM, Cy5 or biotin (hexaethylene glycol spacer)
Procedure: as §1, with “baseline.” for “baseline. The sensors were then transferred to wells containing different concentrations of L-selectin in 200 μL diluent to allow aptamer association with CD62L (R&D Systems of Minneapolis, Minnesota), CD62P (ACROBiosystems of Newark, Delaware), or CD62E (ACROBiosystems). Finally, the sensors were transferred to wells containing 200 μL diluent to allow dissociation.”
To further validate A1 binding to CD62L, the expression of CD62L was knocked down in J.RT3-T3.5 cells with siRNA duplexes targeting the SELL gene, which encodes CD62L, and compared aptamer and antibody binding to J.RT3-T3.5 cells transfected with the SELL siRNA versus a control siRNA. […] The protein was serially diluted, and the association and dissociation kinetics of biotinylated CD62LApt.88 immobilized on streptavidin tips was measured. The dissociation constants (KD) were calculated by performing a global fit on the curves using a 1:1 model.

[7] = molecular target: T3, L-selectin (CD62L) on J.RT3-T3.5 cells; test: flow; stated as sub-nanomolar affinity; settings: tags: endogenous, J.RT3-T3.5 human T-ALL line; label: 5' 6-FAM, Cy5 or biotin (hexaethylene glycol spacer)
[8] = molecular target: T4, L-selectin (CD62L) on primary CD4+ T cells (Homo sapiens, UniProt P14151 P14151:39-372); test: flow; apparent KD +/-0.086; CD4+ T cells cultured in RPMI + 10% FBS; settings: tags: endogenous, label: 5' 6-FAM, Cy5 or biotin (hexaethylene glycol spacer)
T4 sequence: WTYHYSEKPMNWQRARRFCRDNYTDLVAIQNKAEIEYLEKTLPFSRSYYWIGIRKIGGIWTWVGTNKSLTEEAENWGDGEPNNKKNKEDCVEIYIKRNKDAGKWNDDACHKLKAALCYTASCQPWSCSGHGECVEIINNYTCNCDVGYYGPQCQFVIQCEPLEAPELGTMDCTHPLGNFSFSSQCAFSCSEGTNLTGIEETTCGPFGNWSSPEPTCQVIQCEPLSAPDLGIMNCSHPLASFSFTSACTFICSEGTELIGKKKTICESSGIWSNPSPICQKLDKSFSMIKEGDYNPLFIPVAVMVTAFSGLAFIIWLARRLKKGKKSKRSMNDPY

[9] = molecular target: T4, L-selectin (CD62L) on primary CD4+ T …; test: flow; apparent KD +/-0.033; cryopreserved CD4+ T cells used right after thaw; DPBS Ca/Mg + 5 mM MgCl2, 4 C; settings: tags: endogenous, label: 5' 6-FAM, Cy5 or biotin (hexaethylene glycol spacer)
[10] = molecular target: T2, L-selectin (CD62L, SELL); test: BLI; +/-0.125; R2 0.9898; aptamer immobilised; settings: tags: recombinant human CD62L, R&D Systems; label: 5' biotin
Procedure: Prior to running, Octet streptavidin (SA) biosensors (Sartorius of Göttingen, Germany) were pre-soaked in 200 μL diluent (WB supplemented with 1% BSA, 0.1 mg/mL yeast tRNA, 0.1 mg/mL salmon sperm DNA and 0.01% Tween-20). For BLI, the SA biosensors were first rinsed in 200 μL diluent for 100 sec to establish the first baseline. The rinsed sensors were transferred to wells containing 50 nM biotinylated aptamers in 200 μL diluent for aptamer immobilization onto the SA biosensors until a threshold of 0.5 nm is reached. Next, aptamer-immobilized SA biosensors were rinsed in 200 μL diluent for 100 sec to remove excess aptamers and for an additional 100 sec in 200 μL diluent to establish the second baseline. The sensors were then transferred to wells containing different concentrations of L-selectin in 200 μL diluent to allow aptamer association with CD62L (R&D Systems of Minneapolis, Minnesota), CD62P (ACROBiosystems of Newark, Delaware), or CD62E (ACROBiosystems). Finally, the sensors were transferred to wells containing 200 μL diluent to allow dissociation. The association and dissociation durations are indicated on the BLI curves.

Chain of P-selectin (CD62P, SELP) (P16109 42-771, one chain of several): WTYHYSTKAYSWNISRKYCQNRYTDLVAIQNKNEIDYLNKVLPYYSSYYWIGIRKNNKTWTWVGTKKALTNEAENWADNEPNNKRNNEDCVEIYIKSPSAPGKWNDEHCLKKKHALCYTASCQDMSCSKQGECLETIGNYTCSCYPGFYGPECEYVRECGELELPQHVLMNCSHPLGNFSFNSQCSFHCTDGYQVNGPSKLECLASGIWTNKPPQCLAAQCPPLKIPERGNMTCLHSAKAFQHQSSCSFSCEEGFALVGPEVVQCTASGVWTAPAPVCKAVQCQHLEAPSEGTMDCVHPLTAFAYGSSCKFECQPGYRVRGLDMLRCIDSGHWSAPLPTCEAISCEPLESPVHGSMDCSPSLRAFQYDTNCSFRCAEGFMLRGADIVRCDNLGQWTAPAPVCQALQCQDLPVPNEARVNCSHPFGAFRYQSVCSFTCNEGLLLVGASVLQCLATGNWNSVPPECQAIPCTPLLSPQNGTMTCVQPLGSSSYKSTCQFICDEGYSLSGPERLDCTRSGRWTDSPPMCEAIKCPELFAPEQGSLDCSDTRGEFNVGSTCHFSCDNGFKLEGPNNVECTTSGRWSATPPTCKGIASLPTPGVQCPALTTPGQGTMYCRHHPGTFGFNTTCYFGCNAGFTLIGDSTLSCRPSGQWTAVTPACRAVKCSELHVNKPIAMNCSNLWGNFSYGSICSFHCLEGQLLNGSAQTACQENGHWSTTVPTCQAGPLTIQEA

Which relative antibody binding after CD62L siRNA knockdown (vs control siRNA) [1] does the source give for “Alexa Fluor 488 anti-human CD62L monoclonal antibody, clone DREG-56 (BioLegend)” here?
The relative antibody binding after CD62L siRNA knockdown (vs control siRNA) was 17%.

B1: CD62LApt.52 (ssDNA)
DNA: TAGTCAAGGCGATAGACGAAAAACATTGTTTTCCTGGAAGGCCCAGAATCTG
Does B1 bind [2]?
Result: no binding

And the Kd [3]?
Its Kd is 5.3 nM.

Does B1 bind [4]?
Result: no binding

And the Kd [5]?
The Kd was 0.19 nM.

B2: CD62LApt.88 (A1, L-SA.88) (ssDNA)
DNA: ATCCAGAGTGACGCAGCATAGTCAAGGCGATAGACGAAAAACATTGTTTTCCTGGAAGGCCCAGAATCTGTGGACACGGTGGCTTAGT
B2 was tested. Which Kd [6] did it give?
Its Kd is 4.91 nM.

And the Kd [7]?
Its Kd is under 1 nM.

And the Kd [8]?
The Kd was 0.31 nM.

And the Kd [9]?
Its Kd is 0.04 nM.

B3: CD62LApt.61 (ssDNA)
DNA: AGACCCGACGCAGCATAGTCAAGGCGATAGACGAAAAACATTGTTTTCCTGGAAGGCCCAGAATCTGCG
B3 was tested. Which Kd [10] did it give?
Its Kd is 5.81 nM.
